Test results: patent US20250025478

Experiments:
[1] = molecular target: GST-SPATA2 (UniProt Q9UM82)
[2] = molecular target: 6×His-CYLD (UniProt Q9NQC7)
[3] = system: 3×-FLAG-RNF213

GST-SPATA2, sequence (Q9UM82 whole entry): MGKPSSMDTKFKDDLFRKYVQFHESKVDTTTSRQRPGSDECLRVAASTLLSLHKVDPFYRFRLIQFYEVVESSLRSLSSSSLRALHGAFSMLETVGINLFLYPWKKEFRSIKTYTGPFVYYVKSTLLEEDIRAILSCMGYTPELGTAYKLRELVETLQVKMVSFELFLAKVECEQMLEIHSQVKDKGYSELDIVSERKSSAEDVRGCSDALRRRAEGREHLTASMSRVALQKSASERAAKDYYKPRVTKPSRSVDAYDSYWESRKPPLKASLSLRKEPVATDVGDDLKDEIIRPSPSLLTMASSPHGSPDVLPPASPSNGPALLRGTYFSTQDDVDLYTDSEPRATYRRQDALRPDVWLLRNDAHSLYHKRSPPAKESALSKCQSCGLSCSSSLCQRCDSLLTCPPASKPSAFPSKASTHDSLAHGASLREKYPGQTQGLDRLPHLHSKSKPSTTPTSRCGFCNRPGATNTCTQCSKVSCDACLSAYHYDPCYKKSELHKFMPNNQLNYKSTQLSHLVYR
6×His-CYLD, sequence (Q9NQC7 whole entry): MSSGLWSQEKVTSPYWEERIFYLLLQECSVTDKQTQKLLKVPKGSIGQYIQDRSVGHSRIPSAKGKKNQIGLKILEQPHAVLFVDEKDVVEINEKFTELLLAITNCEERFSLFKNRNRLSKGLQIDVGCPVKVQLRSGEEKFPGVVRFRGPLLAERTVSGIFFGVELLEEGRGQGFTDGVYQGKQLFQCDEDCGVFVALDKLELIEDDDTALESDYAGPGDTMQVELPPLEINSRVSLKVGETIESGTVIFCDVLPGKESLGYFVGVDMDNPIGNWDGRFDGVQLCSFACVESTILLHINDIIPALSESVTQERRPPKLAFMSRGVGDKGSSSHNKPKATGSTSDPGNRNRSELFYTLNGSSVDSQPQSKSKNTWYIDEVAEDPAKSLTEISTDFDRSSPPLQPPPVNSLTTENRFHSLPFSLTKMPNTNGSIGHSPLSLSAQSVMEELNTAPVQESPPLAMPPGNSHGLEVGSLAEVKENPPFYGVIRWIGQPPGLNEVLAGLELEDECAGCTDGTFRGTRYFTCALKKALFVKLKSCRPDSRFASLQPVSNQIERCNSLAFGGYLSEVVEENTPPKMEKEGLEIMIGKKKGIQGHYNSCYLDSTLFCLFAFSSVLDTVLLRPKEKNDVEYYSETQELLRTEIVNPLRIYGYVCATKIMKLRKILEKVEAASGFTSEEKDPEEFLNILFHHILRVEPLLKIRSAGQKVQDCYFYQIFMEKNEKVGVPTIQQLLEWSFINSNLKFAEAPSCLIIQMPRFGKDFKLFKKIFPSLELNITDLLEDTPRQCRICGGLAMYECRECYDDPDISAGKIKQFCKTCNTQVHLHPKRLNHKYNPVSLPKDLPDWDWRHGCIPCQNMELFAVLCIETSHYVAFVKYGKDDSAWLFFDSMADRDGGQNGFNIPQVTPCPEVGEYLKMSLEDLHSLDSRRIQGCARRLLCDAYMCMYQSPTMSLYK

Substance | in vitro ubiquitylation assay (UBE1, UBE2L3, HA-Ub) [1] | in vitro ubiquitylation assay (UBE1, UBE2L3, HA-Ub) [2] | in vitro dephosphorylation of ABL1-phosphorylated RNF213 [3]
3×-FLAG-RNF213 | SPATA2 and CYLD, when tested alone or in equimolar concentrations, were ubiquitinated by 3×FLAG-RNF213 | SPATA2 and CYLD, when tested alone or in equimolar concentrations, were ubiquitinated by 3×FLAG-RNF213 | 
3×-FLAG-RNF213^H4014A | both proteins showed increased ubiquitylation when the RING mutant RNF213^H4014A (RING-dead) was assayed (compared with WT RNF213) | both proteins showed increased ubiquitylation when the RING mutant RNF213^H4014A (RING-dead) was assayed (compared with WT RNF213) | 
3×-FLAG-RNF213^H4014A/H4509A | RING/RZ-dead was unable to ubiquitylate CYLD/SPATA2 | RING/RZ-dead was unable to ubiquitylate CYLD/SPATA2 | 
3×-FLAG-RNF213^H4509A | There was no significant ubiquitylation of CYLD or SPATA2 when an RZ mutant ("RZ-dead") form of RNF213 (RNF213^H4509A) was tested | There was no significant ubiquitylation of CYLD or SPATA2 when an RZ mutant ("RZ-dead") form of RNF213 (RNF213^H4509A) was tested | 
recombinant GST-PTP1B |  |  | GST-PTP1B dephosphorylated ABL1-phosphorylated RNF213
